Reference: publication PMC12416549 (2024)
Substitutions are numbered along the chain they refer to. Names and notes keep the numbering of the source.

B1: E72V (designed binder)
chain: SMEEEVEKAAKEYEKKKKEAIEKHLEKLKAKDKEAAERFLKELEEAAKEYAKDEAKTMSEEEAKRRAKKYKVKVLLSELSEEEQKEIKEAEEKLVRTILKYVEEAAK
B2: E82L (designed binder)
chain: B1 chain with V72E, E82L
B3: Y50W (designed binder)
chain: B1 chain with Y50W, V72E
B4: M2G (designed binder)
chain: B1 chain with M2G, V72E
B5: E4I (designed binder)
chain: B1 chain with E4I, V72E
B6: L43S (designed binder)
chain: B1 chain with L43S, V72E
B7: K71T (designed binder)
chain: B1 chain with K71T, V72E
B8: K33V (designed binder)
chain: B1 chain with K33V, V72E
B9: E37R (designed binder)
chain: B1 chain with E37R, V72E
B10: K27M (designed binder)
chain: B1 chain with K27M, V72E
B11: E54A (designed binder)
chain: B1 chain with E54A, V72E
B12: E92Y (designed binder)
chain: B1 chain with V72E, E92Y
B13: E5W (designed binder)
chain: B1 chain with E5W, V72E
B14: K48R (designed binder)
chain: B1 chain with K48R, V72E
B15: A105H (designed binder)
chain: B1 chain with V72E, A105H
B16: K93C (designed binder)
chain: B1 chain with V72E, K93C
B17: D32G (designed binder)
chain: B1 chain with D32G, V72E
B18: A35Y (designed binder)
chain: B1 chain with A35Y, V72E
B19: E26P (designed binder)
chain: B1 chain with E26P, V72E
B20: A55E (designed binder)
chain: B1 chain with A55E, V72E
B21: E12Y (designed binder)
chain: B1 chain with E12Y, V72E
B22: K31R (designed binder)
chain: B1 chain with K31R, V72E
B23: R66P (designed binder)
chain: B1 chain with R66P, V72E
B24: F39A (designed binder)
chain: B1 chain with F39A, V72E
B25: E54W (designed binder)
chain: B1 chain with E54W, V72E
B26: A47K (designed binder)
chain: B1 chain with A47K, V72E
B27: A106W (designed binder)
chain: B1 chain with V72E, A106W
B28: K85H (designed binder)
chain: B1 chain with V72E, K85H
B29: V95S (designed binder)
chain: B1 chain with V72E, V95S
B30: E92C (designed binder)
chain: B1 chain with V72E, E92C
B31: K17S (designed binder)
chain: B1 chain with K17S, V72E
B32: A20H (designed binder)
chain: B1 chain with A20H, V72E
B33: V74G (designed binder)
chain: B1 chain with V72E, V74G
B34: K68E (designed binder)
chain: B1 chain with K68E, V72E
B35: K16Q (designed binder)
chain: B1 chain with K16Q, V72E
B36: K18C (designed binder)
chain: B1 chain with K18C, V72E
B37: V102M (designed binder)
chain: B1 chain with V72E, V102M
B38: A105K (designed binder)
chain: B1 chain with V72E, A105K
B39: S77P (designed binder)
chain: B1 chain with V72E, S77P
B40: H24V (designed binder)
chain: B1 chain with H24V, V72E
B41: E82H (designed binder)
chain: B1 chain with V72E, E82H
B42: K27N (designed binder)
chain: B1 chain with K27N, V72E
B43: I98H (designed binder)
chain: B1 chain with V72E, I98H
B44: V95T (designed binder)
chain: B1 chain with V72E, V95T
B45: E4P (designed binder)
chain: B1 chain with E4P, V72E
B46: E89L (designed binder)
chain: B1 chain with V72E, E89L
B47: E45H (designed binder)
chain: B1 chain with E45H, V72E
B48: K73C (designed binder)
chain: B1 chain with V72E, K73C
B49: L76K (designed binder)
chain: B1 chain with V72E, L76K
B50: E4R (designed binder)
chain: B1 chain with E4R, V72E
B51: I87R (designed binder)
chain: B1 chain with V72E, I87R
B52: R66K (designed binder)
chain: B1 chain with R66K, V72E
B53: S1H (designed binder)
chain: B1 chain with S1H, V72E
B54: A63T (designed binder)
chain: B1 chain with A63T, V72E
B55: E14M (designed binder)
chain: B1 chain with E14M, V72E

Biological target: T1, TNFR1 (Homo sapiens, UniProt P19438)
T1 chain: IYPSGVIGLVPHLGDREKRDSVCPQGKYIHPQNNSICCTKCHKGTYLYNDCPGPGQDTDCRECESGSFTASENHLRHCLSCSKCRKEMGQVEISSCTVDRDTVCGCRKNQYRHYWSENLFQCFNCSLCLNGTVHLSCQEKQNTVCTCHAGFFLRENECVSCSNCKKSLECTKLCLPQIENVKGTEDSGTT
Assay: yeast display SC50

Binder | apparent Kd (screen) [nM]
B1 | 1.27
B2 | 0.718
B3 | 7.07
B4 | 0.446
B5 | 1.86
B6 | 0.49
B7 | 0.49
B8 | 0.446
B9 | 0.446
B10 | 1.05
B11 | 3.63
B12 | 13.8
B13 | 0.539
B14 | 0.593
B15 | 2.05
B16 | 1.54
B17 | 0.593
B18 | 1.27
B19 | 22.2
B20 | 1.27
B21 | 0.593
B22 | 0.49
B23 | 0.593
B24 | 3
B25 | 0.869
B26 | 0.49
B27 | 0.368
B28 | 0.869

Binder | apparent Kd (screen) [nM]
B29 | 13.8
B30 | 6.43
B31 | 1.27
B32 | 0.446
B33 | 1.05
B34 | 1.4
B35 | 0.718
B36 | 0.869
B37 | 0.49
B38 | 1.86
B39 | 11.4
B40 | 1.05
B41 | 0.446
B42 | 0.653
B43 | 5.84
B44 | 13.8
B45 | 3.3
B46 | 1.86
B47 | 3.3
B48 | 24.4
B49 | 3.3
B50 | 1.69
B51 | 16.7
B52 | 10.4
B53 | 1.4
B54 | 16.7
B55 | 12.5
